The source of these data is patent US20220213157A1 (PEKING UNIVERSITY, published 2022).

The target in data set [1] is human CSQ2 D348C mutant, without the signal peptide (human) (UniProt O14958). The experiment in a line: cell-based or functional assay.
Data set [2] deals with the molecule itself. The experiment in a line: crystal structure of rat CSQ2 with 200 mM Ca2+, homodimers in the asymmetric unit. The method, then:
Human CSQ2 crystals were obtained according to a hanging drop vapor diffusion method (24-well hanging drop plate, XtalQuest) at 16° C. using 1.5 μL protein solution (25 mg/ml) and 1.5 μL reservoir solution containing 100 mM Na cacodylate (pH 6.0), 25% (vol/vol) 2-methyl-2,4-pentanedio (MPD) and 40 mM calcium lactate. Small needle-like crystals appeared within two days. After several rounds of stick seeding, the crystals had grown to approximately 50×50×400 μm. The Se-Met CSQ2 crystals were obtained using the same process. Diffraction data of native and Se-Met crystals were collected and were prcessed using CCP4 program suit (see, e.g., Winn, M. D. et al. Overview of the CCP4 suite and current developments. Acta. Crystallogr. D. Biol. Crystallogr. 67, 235-242 (2011). doi: 10.1107/S0907444910045749). The initial phase was determined by MR-SAD using PHENIX (see, e.g., P. D. Adams et al., PHENIX: a comprehensive Python-based system for macromolecular structure solution. Acta. Crystallogr. D. Biol. Crystallogr. 66, 213-221 (2010). doi: 10.1107/S0907444909052925). […] The phase was determined by molecular replacement using human CSQ2 structure as a searching model. […]
The crystal structures of the human CSQ2 protein and the rat CSQ2 protein were determined to be 2.2 Å and 2.8 Å with a high concentration of Ca²⁺ in the reservoir solution (40 mM Ca²⁺ for human CSQ2, 200 mM Ca²⁺ for rat CSQ2). […]

For “human CSQ2 D348C mutant, without the signal peptide (from UniProt O14958 20-399)”, the current of the CSQ2-immobilized single-molecule junction at 25 mV bias (1 mM Ca2+, 1.2 mM Mg2+) in data set [1] was 15 pA.

B1: rat CSQ2 (calsequestrin 2), amino acids 20-413, without the signal peptide (other)
chain: EEGLNFPTYDGKDRVVSLSEKNLKQVLKRYDLLCLYYHEPVSSDKVAQKQFQLKEIVLELVAQVLEHKNIGFVMVDSRKEAKLAKRLGFSEEGSLYVLKGGRTIEFDGEFAADVLVEFLLDLIEDPVEIVNNKLEVQAFERIEDQIKLLGFFKNEDSEYYKAFQEAAEHFQPYIKFFATFDKGVAKKLSLKMNEVGFYEPFMDEPSVIPNKPYTEEELVEFVKEHQRPTLRPLRPEDMFETWEDDLNGIHIVAFAEKSDPDGYEFLEILKQVARDNTDNPDLSILWIDPDDFPLLVAYWEKTFKIDLFKPQIGVVNVTDADSVWMEIPDDDDLPTAEELEDWIEDVLSGKINTEDDDNEDEDDDGDNDNDDDDDDDDNDDEDNDDDDDDDDDDE
notes: Entered as the monomer
Turning to B1, the binding result in data set [2] is reported as “binds”.
